Test results from article doi:10.1101/2023.07.17.549240.

Tests used:
WRKY45 [1] = target: T1, WRKY45 (Arabidopsis thaliana, UniProt Q9S763 1-147); experiment: competition
WRKY45 [2] = target: T1, WRKY45; experiment: EMSA

T1 sequence (Q9S763 whole entry): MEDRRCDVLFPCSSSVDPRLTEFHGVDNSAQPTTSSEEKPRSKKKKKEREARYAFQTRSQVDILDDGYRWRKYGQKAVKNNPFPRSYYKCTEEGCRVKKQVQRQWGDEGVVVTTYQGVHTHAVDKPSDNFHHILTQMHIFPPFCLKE

Binder	binding result (WRKY45 [1])	binding result (WRKY45 [2])
PCS2 W-box1 cold competitor (dsDNA) DNA 1: ATTGTCAGAGTTTGACTATGGAGCAAAC DNA 2: GTTTGCTCCATAGTCAAACTCTGACAAT	binds	–
PCS1 W-box probe (dsDNA) DNA 1: TACAATCCAAATTGACTGTAATTTGTTA DNA 2: TAACAAATTACAGTCAATTTGGATTGTA	–	no binding
PCS2 W-box1 (W1) probe (dsDNA) DNA 1: ATTGTCAGAGTTTGACTATGGAGCAAAC DNA 2: GTTTGCTCCATAGTCAAACTCTGACAAT	–	binds
PCS2 mW-box1 probe (dsDNA) DNA 1: ATTGTCAGAGTCGCGGAATGGAGCAAAC DNA 2: GTTTGCTCCATTCCGCGACTCTGACAAT	–	no binding
